Measurements as given in patent publication US20170369590A1 (published 2017).

How the values were obtained:
[1] = target: T1, human epidermal growth factor receptor 2 (HER2), membrane-bound on cells (human, UniProt P04626 23-1255); experiment: FACS binding; A431 cells
[2] = target: T1, human epidermal growth factor receptor …; experiment: FACS binding; AU565 cells

Row | Binder | EC50 [1] | EC50 [2]
1 | HuMab 132 (antibody, V domains shown) VH: QVQLVQSGAEVKKPGASVKVSCKASGYTFTSYGISWVRQAPGQGLEWMGWISAYNGNSNYVQKFQGRVTMTTDTTTSTAYMELRSLTSDDTAVYYCAREYSYDSGTYFYYGMDVWGQGTTVTVSS VL: EIVLTQSPATLSLSPGERATLSCRASQSVSSYLAWYQQKPGQAPRLLIYDASNRATGIPARFSGSGSGTDFTLTISSLEPEDFAVYYCQQRSNWPMYTFGQGTKLEIK | 0.068 µg/mL | 0.911 µg/mL
2 | HuMab 127 (antibody, V domains shown) VH: EVQLVQSGAEVKKPGESLTISCKGSGYSFSIYWIGWVRQMPGKGLEWMGIIFPGDSDIRYSPSFQGQVTISADKSISTAYLQWSSLKASDTAMYYCARQPGDWSPRHWYFDLWGRGTLVTVSS VL: VIWMTQSPSLLSASTGDRVTISCRMSQGISSYLAWYQQKPGKAPELLIYAASTLQSGVPSRFSGSGSGTDFTLTISYLQSEDFATYYCQQYYSFPLTFGGGTKVEIK | 0.27 µg/mL | 2.29 µg/mL
3 | HuMab 084 (antibody, V domains shown) VH: QVQLVQSGAEVKKPGSSVKVSCKASGGTFRTYAINWVRQAPGQGLEWMGRINTVLGIVNHAQKFQGRVTITADKSTNTAYMELNSLRSEDTAVYYCAREKGVDYYYGIEVWGQGTTVTVSS VL: DIQMTQSPSSVSASVGDRVTITCRASQGISSWLAWYQHKPGKAPKLLIYVASTLQSGVPSRFSGSGSGTDFTLTISSLQPEDFATYYCQQANSFPLTFGGGTKVEIK | 0.498 µg/mL | 0.491 µg/mL
4 | HuMab 129 (antibody, V domains shown) VH: QVQLVESGGGVVQPGRSLRLSCAASGFTFSTFAIHWVRQAPGKGLEWVAVISYDGGHKFYADSVKGRFTISRDNSKNTLYLQMNSLRAEDTAMYYCARGLGVWGAFDYWGQGTLVTVSS VL: EIVLTQSPATLSLSPGERATLSCRASQSVSSYLAWYQQKPGQAPRLLIYDASNRATGIPARFSGSGSGTDFTLTISSLEPEDFAVYYCQQRSNWWTFGQGTKVEIK | 0.316 µg/mL | 0.578 µg/mL
5 | HuMab 098 (antibody, V domains shown) VH: EVQLLESGGGLVQPGGSLRLSCAASGFTFSNYGMSWVRQAPGKGLEWVSAISGSAYSTYYADSVKGRFTISRDNSKNTLWLQMNSLRAEDTAVYYCAKAHYHGSGSYYTLFDYWGQGTLVTVSS VL: DIQMTQSPSSLSASVGDRVTITCRASQGISSWLAWYQQKPEKAPKSLIYAASSLQSGVPSRFSGSGSGTDFTLTISSLQPEDFATYYCQQYNSYPYTFGQGTKLEIK | 0.101 µg/mL | 0.336 µg/mL
6 | HuMab 050 (antibody, V domains shown) VH: EVQLLESGGGLVQPGGSLRLSCAASGFTFSSYAMNWVRQAPGKGLEWVSAISGRGGTTYYADSVKGRFTISRDNSKNTLYLQMSSLRAEDTAVYYCAKARANWDYFDYWGQGTLVTVSS VL: DIQMTQSPSSVSASVGDRVTITCRASQGISSWLAWYQHKPGKAPKLLIYAASILQSGVPSRFSGSGSGTDFTLTISSLQPEDFATYYCQQANSFPITFGQGTRLEIK | 1.14 µg/mL | 0.722 µg/mL
7 | HuMab 025 (antibody, V domains shown) VH: QVQLQQWGAGLLKPSETLSLTCAVYGGSFSDYYWNWIRQPPGKGLEWIGEIHHSGSTNYNPSLKSRVTISVDTSKNQFSLKLSSVTAADTAVYYCARGYYDSGVYYFDYWAQGTLVTVSS VL: DIQMTQSPSSLSASVGDRVTITCRASQGISRWLAWYQQKPEKAPKSLIYAASSLRSGVPSRFSGSGSGTDFTLTISSLQPEDFATYYCQQYNSYPITFGQGTRLEIK | 0.128 µg/mL | 0.58 µg/mL

The remaining lines, values ahead:

Row | EC50 [1] | EC50 [2] | Binder
8 | 0.415 µg/mL | 0.908 µg/mL | HuMab 169 (antibody, V domains shown) VH: QVQLVQSGAEVKKPGASVKVSCKASGYTFTNYGISWVRQAPGQGLEWMGWLSAYSGNTIYAQKLQGRVTMTTDTSTTTAYMELRSLRSDDTAVYYCARDRIVVRPDYFDYWGQGTLVTVSS VL: EIVLTQSPATLSLSPGERATLSCRASQSVSSYLAWYQQKPGQAPRLLIYDASNRATGIPARFSGSGSGTDFTLTISSLEPEDFAVYYCQQRSNWPRTFGQGTKVEIK
9 | 0.855 µg/mL | 1.3 µg/mL | HuMab 159 (antibody, V domains shown) VH: EVQLVQSGAEVKKPGESLKISCKGSGYNFTSYWIGWVRQMPGKGLEWMGIIYPGDSDTRYSPSFQGQVTISADKSISTAYLQWSSLKASDTAMYYCARWGTYYDILTGYFNWFDPWGQGTLVTVSS VL: DIQMTQSPSSLSASVGDRVTITCRASQGISSWLAWYQQKPEKAPKSLIYAASSLQSGVPSRFSGSGSGTDFTLTISSLQPEDFATYYCQQYYIYPWTFGQGTKVEIK
10 | 0.244 µg/mL | 0.626 µg/mL | HuMab 153 (antibody, V domains shown) VH: QVQLVESGGGVVQPGRSLRLSCAASGFTFSDYVIHWVRQAPGKGLEWVTVISYDGSNKYYADSVKGRFTISRDNSKNTLYLQMNSLSAEDTAMYYCARGGITGTTGVFDYWGQGTLVTVSS VL: DIQMTQSPSSLSASVGDRVTITCRASQGISSWLAWYQQKPEKAPKSLIYDASSLQSGVPSRFSGSGYGTDFSLTISSLQPEDFAIYYCQQYKSYPITFGQGTRLEIK
